Consider two substances from paper PMC2603183.

The target of assay [1] is CHIR-AB1 extracellular domain (chicken). Description: SPR. In general terms: In SPR one partner is held on a chip, and binding of the other changes the refractive index at the surface.
For assay [2] the target is unchanged. Description: AUC.
The next assay addresses chicken IgY (chicken). Description: SPR.
Assay [3] has as its target FcY (CH3-CH4 domains of chicken IgY) (chicken). Description: SEC. For orientation: Size exclusion chromatography separates by hydrodynamic size, large species first.

Usually Kd stands for the equilibrium constant for the complex coming apart. The low end stands for a tighter complex, the high end for a looser complex. On to chicken IgY (natural protein), for which, in assay [1], the Kd came out at 17 nM; the microscopic KD, binding of the first CHIR-AB1 to IgY (bivalent analyte model) stood at 403 nM; the microscopic KD, binding of the second CHIR-AB1 to IgY (bivalent analyte model) was determined as 3900 nM.
The term stoichiometry N denotes the number of molecules, sites or subunits per partner or assembly. As to “CHIR-AB1 extracellular domain (receptor)”, the figures for the stoichiometry N in assay [2] and in assay [3] were 2 and 1.83, respectively. In the assay with chicken IgY (chicken), this substance displayed a dissociation constant Kd of 800 nM.
